Experiment: yeast display, Sf9 membrane polyspecificity reagent, FACS + sequencing; frameworks hold sequencing errors
Outline: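 Nanobodies from a synthetic yeast display library (Saccharomyces cerevisiae BJ5465), induced 36–48 hours with galactose, were stained 1 hour at 4 °C with 10% biotinylated, detergent-solubilized Sf9 membrane reagent, enriched on streptavidin microbeads, then FACS-sorted. Anti-HA (expression) and streptavidin (reagent binding) fluorescence set low and high (top ~1%) gates. Polyreactivity labels come from the gate of origin. Genes were colony-PCR amplified, MiSeq 2 × 250 sequenced and filtered by CDR length.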

Sequence: QVQLVESGGGLVQAGGSLRLSCAASGFIFNTNAMGWYRQAPGKERELVAGISRSGVRTYYADSVKGRFTISRDNAKNTVFLQMNSLKPEDTAVYYCAATSLPRYYYWGQGTQVTVSS
- polyreactivity (PSR sort gate): low polyreactivity

Sequence: QVQLVESGGCLVQAGGSLRLSCAASGSTFWWNTMGWYRQAPGKERELVADIRTSGGGTYYADSVKGRFTISRDNAKNTVYLQMNSLKPEDTAVYYCNADPKWEMGSWGQGTQVTVSS
- polyreactivity (PSR sort gate): low polyreactivity

Sequence: QVQLVESGGGLVQAGGSLRLSCAASGFTFLDYALGWYIQAPGKERELVASISSSGGSTRYADSVKGRFTISRDNAKNTVYLQMNSLKPEDTAVYYCNAQIAEVPNDYWGQGPQVTVSS
- polyreactivity (PSR sort gate): low polyreactivity

Sequence: QGQLLESGGGLVQAGGSLRLSCAASRFNFRFYAIGWYRQAPGKERELVASITQGGSTYYADSVKGSFTISRDNAKNTVYLQMNSLKPVDTAVYSCAARYLGGRRSGDYSRYYWGQGTQVSVSS
- polyreactivity (PSR sort gate): high polyreactivity

Sequence: QVQLVESGGGVVQAGGSLRLSSAASGYIFRAYAMGWYRQAPGKERELVAAISSRGGSTYFADSVKGRFTISRDNAKNTVYLQMNSLKPEDTAVYYCAAAYRQPYIGYGYWGQGTQVTVSS
- polyreactivity (PSR sort gate): high polyreactivity

Sequence: QVQLVESGGGLVPAGGTLRLSCAASGFNFYFNTMGWYRQATGKERELVAAISSGGSTYYADSVKGRFTISRDNAKNTVSFQMNSLKPEDTAVYYCNKDYLQYYPYDYWGHGTQVTVSS
- polyreactivity (PSR sort gate): low polyreactivity

Sequence: QVQLVESGGGLVQAGGSLRLICAASGSIFVIYAMGWYRQAPGKERELVAAITSGGNTTYADSVKGRFTISRDNAKNTVSLQMNSLKPEDTAVYYCSADYPWEYDYWGQGTQVTVSS
- polyreactivity (PSR sort gate): low polyreactivity

Sequence: QVQIEESVGDLVQAGGSLRLICAASGRTFPVYDMGWYRQAPGKERELVAAISRRAVRTYYADSVKGRFTISRDIAKNTVYLQMNSLKPEDTAVYYCNAVLRKITYDYWGQGTQVTVSS
- polyreactivity (PSR sort gate): high polyreactivity

Sequence: QVQLVESGGGLVQAGGSLRLSCAASGRIFFIYAMGWYRQAPGKERELVAAISYDSGSTYYADSVKGRFTISRDNAKNTVSLQMNSLKPEDTAVYYCAAEWGLVIYSTYGYDYWGQGTQVTVSS
- polyreactivity (PSR sort gate): low polyreactivity

Sequence: QVQLVESGGGLVQAGGSLRLSCAASGRIYSFYAMGWYRQAPGKERELVAAITYTDGSTYADSVKGRFTISRDNAKNTVYLQLNSLKPEDTSVYYFATRYRWTPYDFWGQGTQVTVSS
- polyreactivity (PSR sort gate): low polyreactivity

Sequence: QVQLVESGGGLVQAGGSLRLSCAASGRIFDIYTMGWYRQAPGKERELVASITKRGGSTYYADSVKGRFTISRDNAKNTVYLQMNSLKPEDTAVYYCNVAGKQKPYYVTTRLDYWGQGTQVTVSS
- polyreactivity (PSR sort gate): high polyreactivity

Sequence: QVQLVESGGGLFQAGGSLRITCAASGITFSYNAMGWYRQAPGKVRELVAGITWSGGSTYYADSVTGRFTISRDNAKNTVYLQMYSVKREDTAVYYCAASRSFPGYGLYYYWGQGTQVTVSS
- polyreactivity (PSR sort gate): low polyreactivity

Sequence: QVQLVESGGGLVQAGGSLRLSCAASGRILNINAMGWYRQAPGKERELVAAITWRGGRTFYADSVKGRFTISRDNAKNTVYLQMNSLKPEDTAVYYCAKGYRGYSYGYWGQGTQVTVSS
- polyreactivity (PSR sort gate): high polyreactivity

Sequence: QVQLVESGGGLVQAGGSLRLSCAASGSIFRRYAMGWYRQAPGKERELVAAISRSGSSTYADSVKGRFTISRDNEKNTVYLQMNSLKPEDTEVYYCNRVRLNTEGFDYWGQGTQVTVSS
- polyreactivity (PSR sort gate): low polyreactivity

Sequence: QVQLVESGGGLVQAGGSLRLSCAASGRTFYSYAMGWYRQAPGKERELVAAINSGGDTYYADSVKGRFTISRDNAKNTVYLQMNSLKPEDTAVYYCAADYYWEMDTWGQGTQVTVSS
- polyreactivity (PSR sort gate): low polyreactivity

Sequence: QVQLVESGGGLVQAGGSLRLSCAASGIIFRAYAMGWYRPAPGKERELVAAISWSGGSTYYADSVKGRFTISRDNAKNTVYLQMNSLKPEDTAVYYCAAESLVYDFDYWGQGTQVTVSS
- polyreactivity (PSR sort gate): high polyreactivity

Sequence: QVQLVESGRGLVQAGGSLRLTCAASGRIFYLNAMGGYRQAPGKERELVAGITNSTTGTYYADSVKGRFTIARDNAKNTVYLQMNSLKPVDTAVYYCNTDVAYEEPVETYDYWGQGTQVTVSS
- polyreactivity (PSR sort gate): low polyreactivity

Reference: the nanobody polyreactivity screen of Harvey et al. (2022)
